Results published in US10350264B2, “Compositions and methods for modulating NCOA4-mediated autophagic targeting of ferritin” (Dana-Farber Cancer Institute, Inc., priority 2014, dated 2019).

Columns and labels:
Format in all cases: binding
[1] = target: T1, ferritin purified from horse spleen (mixture of FTH1 and FTL subunits) (Equus caballus, UniProt Q8MIP0); assay: anti-MYC immunoprecipitation of in vitro translated MYC-NCOA4 constructs incubated with ferritin; conditions: anti-MYC IP, anti-FTH1 immunoblot, FIG. 5
T1 construct: ferritin purified from horse spleen; purchased Sigma A3641-100 mg; host or cells: horse spleen
T1 sequence (Q8MIP0 whole entry): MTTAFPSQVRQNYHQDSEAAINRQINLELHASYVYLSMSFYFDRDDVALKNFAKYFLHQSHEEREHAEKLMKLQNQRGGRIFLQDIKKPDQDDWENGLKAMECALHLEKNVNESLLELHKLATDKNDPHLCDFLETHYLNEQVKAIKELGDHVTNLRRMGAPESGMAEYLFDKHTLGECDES
T1 sequence (P02791 2-175 partner limits assumed): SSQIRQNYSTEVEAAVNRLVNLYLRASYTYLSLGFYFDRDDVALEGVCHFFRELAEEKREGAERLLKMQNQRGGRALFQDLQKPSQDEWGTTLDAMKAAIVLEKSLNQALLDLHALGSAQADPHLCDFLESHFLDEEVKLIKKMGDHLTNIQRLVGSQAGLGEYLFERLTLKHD
Procedure: To probe the interaction between ferritin and NCOA4, initial binding assays using MYC-tagged NCOA4 full-length and truncation constructs produced using an in vitro translation (“IVT”) system were conducted. MYC-NCOA4 fragments were cloned using PCR into a modified T7 cell-free expression vector (pT7CFE1-NMyc, #88863, Thermo Scientific). 1-Step Human Coupled IVT Kit—DNA from Thermo Scientific (product #88881) was used to produce MYC-tagged NCOA4 constructs as described in the product manual. Apoferritin (Sigma, A3641-100 mg) was added in a pull-down assay using anti-c-Myc Agarose Affinity Gel antibody produced in rabbit (Sigma, A7470-1 ML). Affinity purification reactions were washed thoroughly with 150 mM NaCl, 20 mM Tris (pH 7.4), and 2 mM dithiothreitol. Proteins were eluted with SDS sample buffer and analyzed by 4-20% gradient SDS-PAGE and immunoblotting with anti-FTH1 antibody (Cell Signaling 3998; Western blot 1:1,000) or anti-MYC antibody (Santa Cruz Sc-40; western blot 1:1,000).
The full-length, N-terminal (amino acids (aa) 1-245 of SEQ ID NO: 4) and C-terminal (aa 235-614 of SEQ ID NO:4) MYC-NCOA4 were incubated with ferritin purified from horse spleen (Apoferritin (Sigma, A3641-100 mg), consisting of a mixture of FTH1 and FTL subunits) and anti-MYC immunoprecipitation was performed followed by immunoblotting as described above.

[2] = target: T2, apo-ferritin purified from equine spleen (Equus caballus, UniProt Q8MIP0); assay: GST pull-down assay of ferritin using GST-NCOA4 fragments; conditions: anti-FTH1 immunoblot, FIGS. 7, 8, 11
T2 construct: apo-ferritin purified from equine spleen; purchased Sigma F4503; host or cells: equine spleen
T2 sequence (Q8MIP0 whole entry, the tested form may be a part): as the sequence (Q8MIP0 whole entry) above
T2 sequence (P02791 2-175 partner limits assumed): as the sequence (P02791 2-175 partner limits assumed) above
Source text: GST-tagged NCOA4 constructs were also made to probe the interactions of C-terminal portions of NCOA4 with ferritin. NCOA4-truncation constructs were produced using Gateway cloning (Invitrogen, Life Technologies, catalog #11789-013 and 11791-019) into a pDEST60 N-terminal GST fusion plasmid (GST-NCOA4) from EMD Millipore (Gateway Nova pET-60-DEST, product #71851-3) and transformed in E. coli BL21 (DE3) cells (New England Biosciences, C2527I).
NCOA4 truncation constructs were designed based on NCBI reference sequence: NP_001138735.1 (SEQ ID NO: 4). In particular, fragments of SEQ ID NO: 4 consisting of amino acids (aa) 1-245, aa 235-614, aa 235-560, aa 235-401, aa 383-560, aa 545-614, aa 383-522, aa 510-560, aa 383-436, aa 436-485, aa 475-522, aa 475-500, aa 480-500, aa 480-504, aa 485-509, aa 490-514, aa 495-522 were designed. Protein expression in the DE3 cells was induced with 1 mM isopropyl-beta-D-thiogalactopyranoside (IPTG) (Sigma, I6758-10 G) for 3 hours at 37° C. Cells were collected by centrifugation, re-suspended in 25 mM Tris-HCl (pH 7.4), 10% (w/v) sucrose and lysed with a single freeze-thaw cycle followed by sonication. After centrifugation, a GST pull-down assay was performed.
(§1) In the GST pull-down assay, lysates were incubated with 10 μl of a 50% (v/v) slurry of glutathione Sepharose 4B beads (GE Healthcare Lifesciences, 17-0756-01) for 30 minutes at 4° C. Beads were washed thoroughly with 150 mM NaCl, 20 mM Tris (pH 7.4), 2 mM dithiothreitol (DTT), 0.5% (w/v) Nonidet P-40, leaving 50-100 μg of GST-fusion protein bound to the beads. Beads were then mixed with 0.5-2 μg of apo-ferritin purified from equine spleen (Sigma F4503) or recombinant human FTH1 or FTL produced in Rosetta E. coli (EMD Millipore, 70953-3). The assay mix was incubated for 2 hours at 4° C., and beads were washed four times with 1 ml wash buffer. Proteins were eluted with SDS sample buffer and analyzed by 4-20% gradient SDS-PAGE and immunoblotting with anti-FTH1 antibody (as above) or anti-FLAG antibody (Sigma, F1804-200 UG). Pounceau stain was used to visualize GST-NCOA4 bands. (Pounceau, Sigma, P7170-1 L, protocol as per product manual).

recombinant human FTH1 = target: T3, recombinant human FTH1 (Homo sapiens, UniProt P02794); assay: GST pull-down assay of recombinant FTH1 using GST-NCOA4; conditions: recombinant FTH1 from E. coli, 0.2 μg and 1 μg, FIG. 10A
T3 construct: made in house; host or cells: Rosetta E. coli (EMD Millipore, 70953-3)
T3 sequence (P02794 whole entry): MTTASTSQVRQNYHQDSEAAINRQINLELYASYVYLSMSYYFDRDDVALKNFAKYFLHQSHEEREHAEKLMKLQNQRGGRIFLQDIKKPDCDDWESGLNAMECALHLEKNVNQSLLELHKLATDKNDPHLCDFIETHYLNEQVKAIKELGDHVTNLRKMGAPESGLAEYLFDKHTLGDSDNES
Procedure: as §1
(§2) To understand if there was subunit specificity for NCOA4 binding to ferritin, the NCOA4 C-terminus (aa 235-614) fusion protein was immobilized on glutathione Sepharose beads, as described in Example 1. Recombinant purified FTH1 or FTL produced in E. coli was added at concentrations of 0.2 μg and 1 μg, and binding was determined using the GST pull-down assay described in Example 1, above.

recombinant human FTL = target: T4, recombinant human FTL (Homo sapiens, UniProt P02792); assay: GST pull-down assay of recombinant FTL using GST-NCOA4; conditions: recombinant FTL from E. coli, 0.2 μg and 1 μg; FIG. 10B; listed as GST-NCOA4 fragment
T4 construct: made in house; host or cells: Rosetta E. coli (EMD Millipore, 70953-3)
T4 sequence (P02792 whole entry, the tested form may be a part): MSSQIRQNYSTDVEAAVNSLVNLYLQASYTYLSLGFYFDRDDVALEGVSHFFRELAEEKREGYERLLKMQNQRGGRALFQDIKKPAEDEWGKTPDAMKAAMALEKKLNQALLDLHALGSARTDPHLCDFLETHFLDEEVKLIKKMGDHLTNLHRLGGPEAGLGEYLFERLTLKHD
Procedure: as §1, §2

B1: aa 235-614: NCOA4 C-terminal fragment, amino acids 235-614 of SEQ ID NO: 4 (protein)
chain: ENSQTSSRACNFFNNVGGNLKGLENWLLKSEKSSYQKCNSHSTTSSFSIEMEKVGDQELPDQDEMDLSDWLVTPQESHKLRKPENGSRETSEKFKLLFQSYNVNDWLVKTDSCTNCQGNQPKGVEIENLGNLKCLNDHLEAKKPLSTPSMVTEDWLVQNHQDPCKVEEVCRANEPCTSFAECVCDENCEKEALYKWLLKKEGKDKNGMPVEPKPEPEKHKDSLNMWLCPRKEVIEQTKAPKAMTPSRIADSFQVIKNSPLSEWLIRPPYKEGSPKEVPGTEDRAGKQKFKSPMNTSWCSFNTADWVLPGKKMGNLSQLSSGEDKWLLRKKAQEVLLNSPLQEEHNFPPDHYGLPAVCDLFACMQLKVDKEKWLYRTPLQM
modifications: Homo sapien
association of MYC-NCOA4 construct with ferritin [1]: associated with ferritin | association of MYC-NCOA4 construct with ferritin ([1]; listed as C-terminal NCOA4): bind to ferritin | binding of GST-NCOA4 fragment to ferritin [2]: bound to ferritin | binding of GST-NCOA4 to FTH1 (recombinant human FTH1; listed as GST-NCOA4 fragment): binds to FTH1 | binding of GST-NCOA4 to FTH1 (recombinant human FTH1; listed as NCOA4 C-terminus): interacted with the NCOA4 C-terminus | binding of GST-NCOA4 to FTL (recombinant human FTL): binds minimally to FTL
